Laboratory results from US10464978B2, “Peptides and combination of peptides for use in immunotherapy against ovarian cancer and other cancers” (immatics biotechnologies GmbH, priority 2015, dated 2019).

molecular target: HLA-A*02:01 (Homo sapiens, UniProt P04439, D140Y/D185E/D98H/E176V/E277Q/G131W/G231S/I119V/I121R/I166T/I218V/L300P/L318F/N151K/N90K/P208A/P217A/Q86G/Q94H/R138H/R169H/T345S); assay: MHC binding assay: UV-ligand exchange with beta2m ELISA (peptide exchange yield); details: binding to HLA-A*02:01
Outline: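 Values give exchange yield, measured by β2m ELISA: 100-fold-diluted monomers bound to streptavidin plates (1h, 37° C), probed with HRP anti-β2m at 2 ug/ml and read at 450 nm after TMB. Monomers came from UV-triggered cleavage of a photolabile peptide and exchange for the test peptide.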

Row | Substance | Peptide exchange (MHC class I binding score, peptide exchange yield)
1 | 409 (LLDAMNYHL; listed as Homo sapiens) [compound 409] | “++” (≥20% = ++)
2 | 412 (YLDDLNEGVYI; listed as Homo sapiens) [compound 412] | “++” (≥20% = ++)
3 | 426 (RLADKSVLV; listed as Homo sapiens) [compound 426] | “+++” (≥50 = +++)
4 | 427 (ALLPLSPYL; listed as Homo sapiens) [compound 427] | “+++” (≥50 = +++)
5 | 428 (KLGHTDILVGV; listed as Homo sapiens) [compound 428] | “++” (≥20% = ++)
6 | 429 (GLVNDLARV; listed as Homo sapiens) [compound 429] | “++” (≥20% = ++)
7 | 430 (HLYSSIEHLTT; listed as Homo sapiens) [compound 430] | “+++” (≥50 = +++)
8 | 431 (SLVNVVPKL; listed as Homo sapiens) [compound 431] | “++” (≥20% = ++)
9 | 432 (TLIEESAKV; listed as Homo sapiens) [compound 432] | “++” (≥20% = ++)
10 | 433 (AMLNEPWAV; listed as Homo sapiens) [compound 433] | “+++” (≥50 = +++)
11 | 434 (KVSNSGITRV; listed as Homo sapiens) [compound 434] | “++” (≥20% = ++)
12 | 436 (HLAEVSAEV; listed as Homo sapiens) [compound 436] | “+++” (≥50 = +++)
13 | 437 (SMAPGLVIQAV; listed as Homo sapiens) [compound 437] | “+++” (≥50 = +++)
14 | 438 (KLLPLAGLYL; listed as Homo sapiens) [compound 438] | “++++” (≥75% = ++++)
15 | 439 (YLLQEIYGI; listed as Homo sapiens) [compound 439] | “+++” (≥50 = +++)
16 | 440 (ALADGVTMQV; listed as Homo sapiens) [compound 440] | “++” (≥20% = ++)
17 | 441 (ALLENPKMEL; listed as Homo sapiens) [compound 441] | “+++” (≥50 = +++)
18 | 442 (GLLGGGGVLGV; listed as Homo sapiens) [compound 442] | “+++” (≥50 = +++)
19 | 443 (GLWEIENNPTV; listed as Homo sapiens) [compound 443] | “+++” (≥50 = +++)
20 | 444 (GLLRDEALAEV; listed as Homo sapiens) [compound 444] | “+++” (≥50 = +++)
21 | 446 (QLIPALAKV; listed as Homo sapiens) [compound 446] | “+++” (≥50 = +++)
22 | 447 (QLVPALAKV; listed as Homo sapiens) [compound 447] | “++” (≥20% = ++)

Row | Substance | Peptide exchange (MHC class I binding score, peptide exchange yield)
23 | 448 (NLLETKLQL; listed as Homo sapiens) [compound 448] | “+++” (≥50 = +++)
24 | 449 (KLAEGLDIQL; listed as Homo sapiens) [compound 449] | “+++” (≥50 = +++)
25 | 450 (FMIDASVHPTL; listed as Homo sapiens) [compound 450] | “+++” (≥50 = +++)
26 | 451 (LLLLDTVTMQV; listed as Homo sapiens) [compound 451] | “++” (≥20% = ++)
27 | 452 (ILLEHGADPNL; listed as Homo sapiens) [compound 452] | “+++” (≥50 = +++)
28 | 453 (KLLEATSAV; listed as Homo sapiens) [compound 453] | “++” (≥20% = ++)
29 | 454 (KLPPPPPQA; listed as Homo sapiens) [compound 454] | “+++” (≥50 = +++)
30 | 455 (SLLKEPQKVQL; listed as Homo sapiens) [compound 455] | “++” (≥20% = ++)
31 | 456 (LLIGHLERV; listed as Homo sapiens) [compound 456] | “+++” (≥50 = +++)
32 | 457 (SLLPGNLVEKV; listed as Homo sapiens) [compound 457] | “+++” (≥50 = +++)
33 | 458 (SLIDKLYNI; listed as Homo sapiens) [compound 458] | “++” (≥20% = ++)
34 | 459 (ALITEVVRL; listed as Homo sapiens) [compound 459] | “++” (≥20% = ++)
35 | 460 (AMLEKNYKL; listed as Homo sapiens) [compound 460] | “++++” (≥75% = ++++)
36 | 461 (VMFRTPLASV; listed as Homo sapiens) [compound 461] | “++” (≥20% = ++)
37 | 462 (KLAKQPETV; listed as Homo sapiens) [compound 462] | “+++” (≥50 = +++)
38 | 463 (SLVESHLSDQLTL; listed as Homo sapiens) [compound 463] | “+++” (≥50 = +++)
39 | 464 (ALNDCIYSV; listed as Homo sapiens) [compound 464] | “+++” (≥50 = +++)
40 | 465 (QLCDLNAEL; listed as Homo sapiens) [compound 465] | “+++” (≥50 = +++)
41 | 466 (VLIANLEKL; listed as Homo sapiens) [compound 466] | “++++” (≥75% = ++++)
42 | 467 (FLAKDFNFL; listed as Homo sapiens) [compound 467] | “+++” (≥50 = +++)
43 | 468 (YLRSVGDGETV; listed as Homo sapiens) [compound 468] | “+++” (≥50 = +++)
44 | 469 (YLASDEITTV; listed as Homo sapiens) [compound 469] | “+++” (≥50 = +++)

Row | Substance | Peptide exchange (MHC class I binding score, peptide exchange yield)
45 | 471 (YLYNNMIAKI; listed as Homo sapiens) [compound 471] | “+++” (≥50 = +++)
46 | 472 (KLLEVSDDPQV; listed as Homo sapiens) [compound 472] | “+++” (≥50 = +++)
47 | 473 (AMATESILHFA; listed as Homo sapiens) [compound 473] | “+++” (≥50 = +++)
48 | 474 (YLDPALELGPRNV; listed as Homo sapiens) [compound 474] | “+++” (≥50 = +++)
49 | 475 (LLLNEEALAQI; listed as Homo sapiens) [compound 475] | “+++” (≥50 = +++)
50 | 476 (ALMERTGYSMV; listed as Homo sapiens) [compound 476] | “+++” (≥50 = +++)
51 | 477 (ALLPASGQIAL; listed as Homo sapiens) [compound 477] | “+++” (≥50 = +++)
52 | 478 (YLLHEKLNL; listed as Homo sapiens) [compound 478] | “+++” (≥50 = +++)
53 | 479 (SLFGNSGILENV; listed as Homo sapiens) [compound 479] | “+++” (≥50 = +++)
54 | 480 (ALLEDSCHYL; listed as Homo sapiens) [compound 480] | “+++” (≥50 = +++)
55 | 481 (GLIEDYEALL; listed as Homo sapiens) [compound 481] | “+++” (≥50 = +++)
56 | 484 (SLIEKVTQL; listed as Homo sapiens) [compound 484] | “+++” (≥50 = +++)
57 | 485 (NVPDSFNEV; listed as Homo sapiens) [compound 485] | “+++” (≥50 = +++)
58 | 486 (AVMESIQGV; listed as Homo sapiens) [compound 486] | “+++” (≥50 = +++)
59 | 487 (LLINSVFHV; listed as Homo sapiens) [compound 487] | “+++” (≥50 = +++)
60 | 488 (FLAEDPKVTL; listed as Homo sapiens) [compound 488] | “+++” (≥50 = +++)
61 | 489 (KMWEELPEVV; listed as Homo sapiens) [compound 489] | “+++” (≥50 = +++)
62 | 490 (FLLQHVQEL; listed as Homo sapiens) [compound 490] | “+++” (≥50 = +++)
63 | 491 (GLNDRSDAV; listed as Homo sapiens) [compound 491] | “++” (≥20% = ++)
64 | 492 (SLFDGFADGLGV; listed as Homo sapiens) [compound 492] | “+++” (≥50 = +++)
65 | 493 (GLLGEKTQDLIGV; listed as Homo sapiens) [compound 493] | “+++” (≥50 = +++)
66 | 494 (ALQPEPIKV; listed as Homo sapiens) [compound 494] | “++” (≥20% = ++)
